# Reference: patent US20040097454A1, “Method for modulation of cell phenotype” (University Technology Corporation, priority 1999, published 2004)
# B1: VP16-CREB: constitutively active fusion protein: VP16 transactivation domain (aa 412-490) linked to CREB DNA binding domain (aa 217-327), SEQ ID NO:6 (protein, listed as Homo sapiens)
# chain: MAPKKKRKVPGVPSSNCIDTAPPTDVSLGDELHLDGEDVAMAHADAHDDFDLDMLGDGDSPGPGFTPHDSAPYGALDMADFEFEQMFTDALGIDEYGGIDWILVPSNQVVVQAASGDVQTYQIRTAPTSTIAPGVVMASSPALPTQPAEEAARKREVRLMKNREAARECRRKKKEYVKCLENRVAVLENQNKTLIEELKALKDLYCHKSZ
# What was measured:
# [1] = system: PEPCK, FABP and FAS gene promoters in 3T3-L1 fibroblasts; experiment: Full length PEPCK, FABP and FAS promoter luciferase reporters in 3T3-L1 fibroblasts; format: cell-based; details: relative to untreated cells
# Protocol: Control, VP16-CREB or KCREB inducibly expressing 3T3-L1 fibroblasts were transfected with plasmids containing the full length promoters of the PEPCK, FABP or FAS genes linked to luciferase. The cells were cotransfected with the internal control plasmid, pRSV-pGal. […] Cell lysates were then prepared, and luciferase activity measured as an index of transcriptional activity. Levels of transcription are shown relative to levels measured in untreated cells for each promoter tested, and were corrected for transfection efficiency.
# [2] = system: NIH 3T3-L1 preadipocyte cell lines; experiment: Adipocyte differentiation assay, Oil Red O staining of triacylglycerol; format: cell-based; details: muristerone-induced expression alone, no differentiation agents, 10 days
# Protocol: Differentiation assays were performed on cells growing on 8 chamber microscope slides. […] The cells were treated with a differentiation mixture, muristerone, or both. […] Muristerone was added to medium at a final concentration of 10 uM for the entire 10 day differentiation period. After 10 days in culture, the cells were stained with Oil Red 0 to visualize triacylglycerol vesicles as previously described (Klemm et al., 1998, J. Biol. Chem., 273:917-923), and counterstained with hematoxylin to visualize cell morphology. Cells were observed by brightfield microscopy and representative fields, were photographed.
# 3T3-L1 cells = experiment: 3T3-L1 cell proliferation (Cell-Titer 96 Aq); format: cell-based; details: muristerone-treated versus control clones, 72 hours
# Protocol: 3T3-L1 fibroblasts were passaged and treated with differentiation-inducing agents as previously described (Klemm et al., 1998, J. Biol. Chem., 273:917-923), incorporated herein by reference in its entirety. Plates of 3T3-L1 fibroblasts and adipocytes were grown to 70-80% confluency and transfected with the above-described plasmids with Superfect Reagent (Oiagen, Valencia, Calif.) according to the manufacturer's recommendations. Cells stably transfected with the plasmid, pVgRXR were selected for in conventional medium containing 500 ug/mi Zeocin, and cells stably transfected with pIND-VP16-CREB, pIND-KCREB or pIND-LacZ plasmids were selected for in medium containing 500 ug/ml Geneticin. Large, rapidly growing, well separated colonies were isolated 10 to 12 days after selection was begun with either antibiotic. […] The effect of VP16-CREB and KCREB expression on 3T3-L1 proliferation was assessed by measuring cell number with the Cell-Titer 96 Aq reagent system (Promega Corp., Madison, Wis.).
# Two possible mechanisms by which CREB could potentiate adipose differentiation would be by increasing cell proliferation related to clonal expansion, or by inhibiting cell growth as a prelude to terminal differentiation. To examine these possibilities, changes in the rate of cell growth in control versus muristerone-treated VP16-CREB and KCREB expressing clones was measured.
# [3] = system: CREluc reporter in HEK cells; experiment: CREluc reporter in HEK cells transfected with CREB constructs; format: cell-based; details: transient transfection of adenoviral expression plasmids
# Source text: CDNA for KCREB, CREB DIEDML and VP16CREB were cloned into adenoviral expression vectors as described previously herein. The plasmids were transiently transfected into HEK cells to assess their impact upon a cotransfected CREluc reporter construct. […] Transfected cells were also lysed and CREB protein content and Flag content assayed Western analysis. All proteins were highly expressed in HEK cells (data not shown).
# BASMC = experiment: Transient VP16CREB transfection in BASMC, phenotype; format: cell-based, bovine; details: preliminary transient transfections
# Source text: It is expected that dominant negative CREB and sense ICER will lead to SMC phenotypic modulation. If the dose delivered overwhelms the cells, apoptosis may occur. Assays to confirm or deny the induction of apoptosis are readily available in the lab in conjunction with the neurodegeneration REAP. Overexpression of WT CREB is likely to promote a differentiated phenotype. The present inventors have already provided data above showing arrest of cell cycle and decreased migration with CREB overexpression. The constitutively active CREB could induce ICER and promote dedifferentiation, promote proliferation by driving immediate early genes, or maintain the mature phenotype. Adenoviral overexpression of constitutively active signaling elements can lead to non-physiological protein interactions. […] The dominant negative CREB and ICER overexpression experiments will be the most informative for the question of how CREB down-regulation impacts phenotype.
# [4] = system: PPARγ2 and FABP expression in 3T3-L1 cell lines; experiment: Expression of adipocyte-specific markers PPARγ2 (Western) and FABP (RNA blot); format: cell-based; details: muristerone-treated VP16-CREB cell lines, absence of other differentiation-stimulating agents
# Protocol: In this experiment, control, VP16-CREB and KCREB expressing cells lines were grown and treated as above. On days 0 and 10 of the experiment, whole cell lysates and total RNA were prepared from duplicate wells of cells. Approximately 25 ug of protein in the cell lysates (lysed directly on multiwell slides in SDS gel loading buffer) was separated on 10% polyacrylamide-SDS gels and transferred to nitrocellulose blots. The blots were probed with a polyclonal antibody to PPARγ2, and the specific PPARγ2 band is indicated by an * in the top row of blots (FIG. 3).
# Similarly, 10 ug of total RNA was separated on 1% denaturing (formaldehyde) agarose gels run at 5 V/cm until the Bromophenol Blue tracking dye had migrated half the length of the gel. The gels were soaked in several changes of distilled water, overnight at 4° C., and stained with ethidium bromide and briefly examined in ultraviolet light to insure RNA integrity and equivalent RNA amounts in each lane. The gels were destained in several changes of 5× sodium chloride/sodium citrate (SSC) buffer. RNA was transferred onto nitrocellulose membranes. The resulting blots were heated to 80° C. under vacuum for two hours. The membranes were blocked for 30 minutes at 70° C., and then a biotin-labeled FABP-specific oligonucleotide probe (250 fg/ml) was added for an additional 30 min. […]
# [5] = system: PEPCK gene promoter in NIH 3T3-L1 clonal cell lines; experiment: Truncated CRE-containing PEPCK promoter luciferase reporter (-109 pPC-Luc) in 3T3-L1 clones; format: cell-based; details: VP16-CREB clones 2-4 and 9-7; muristerone; versus untreated cells
# Protocol: To test the ability of KCREB and VP16-CREB expression to influence gene transcription, a plasmid containing a truncated, CRE-containing portion of the phosphoenolpyruvate carboxykinase (PEPCK) gene promoter linked to a luciferase reporter gene (−109 pPC-Luc) was transfected into each of the clones. […] Four hours later cell lysates were prepared and luciferase activity measured as an index of transcriptional activity. Levels are shown relative to levels of luciferase activity in untreated, control cells (No Add'n).
molecule,measurement,setting,value
B1,"transcription (luciferase) from full-length PEPCK, FABP and FAS promoters",[1],stimulated
same,triacylglycerol accumulation and cell morphology (Oil Red O),[2],sufficient to induce triacylglycerol accumulation and rounded cell morphology
same,rate of cell proliferation,3T3-L1 cells,No significant differences in the rate of cell proliferation
same,CREluc reporter luciferase expression,[3],strongly drive the reporter
same,SMC phenotype,BASMC,phenotypic changes consistent with increased differentiation
same,"PPARγ2 and FABP expression, day 10",[4],easily detected
same,"luciferase production from the PEPCK promoter fragment, stimulation",[5],3.5 to 4 fold
